Laboratory results published in PMC4939597, “Mechanism for insulin-like peptide 5 distinguishing the homologous relaxin family peptide receptor 3 and 4” (Scientific Reports, 2016).
No end group written: not given here.

Legend:
human RXFP3 [1] = molecular target: T1, human RXFP3 (Homo sapiens, UniProt Q9NSD7); test: Receptor binding assay, competition with NanoLuc-conjugated R3/I5 tracer; details: for fold lower binding potency towards RXFP3 compared with wild-type INSL5: lower than wild-type INSL5
T1 construct: expressed in transfected cells; host or cells: HEK293T
T1 sequence (Q9NSD7 1-469): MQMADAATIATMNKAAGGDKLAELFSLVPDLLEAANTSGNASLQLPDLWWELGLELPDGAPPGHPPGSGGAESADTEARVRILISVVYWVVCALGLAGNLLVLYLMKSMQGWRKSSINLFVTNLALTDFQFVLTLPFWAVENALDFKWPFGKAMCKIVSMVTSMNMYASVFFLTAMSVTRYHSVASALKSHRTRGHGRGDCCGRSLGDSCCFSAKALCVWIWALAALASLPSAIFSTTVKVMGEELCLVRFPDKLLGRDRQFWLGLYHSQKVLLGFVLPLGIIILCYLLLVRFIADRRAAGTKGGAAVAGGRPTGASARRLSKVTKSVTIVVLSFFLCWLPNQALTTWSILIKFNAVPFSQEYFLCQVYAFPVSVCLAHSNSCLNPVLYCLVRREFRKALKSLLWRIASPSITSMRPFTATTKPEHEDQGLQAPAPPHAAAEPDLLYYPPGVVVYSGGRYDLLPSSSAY
Description: (§1) Figure 3 Receptor binding activities of the mature INSL5 and R3/I5 mutants towards RXFP3 and RXFP4. A NanoLuc-conjugated R3/I5 peptide was used as tracer and HEK293T cells transiently overexpressing human RXFP3 or human RXFP4 were used as receptor source. The tracer concentration used in these assays was 0.5 nM. The nonspecific binding was obtained by competition with 1.0 μM of relaxin-3. The measured data were expressed as mean ± SE (n = 3) and fitted to sigmoidal curves using the software SigmaPlot 10.0.
(§2) The receptor binding assays of the mature INSL5 and R3/I5 mutants were carried out using a NanoLuc-conjugated R3/I5 peptide as tracer and the human embryonic kidney (HEK) 293T cells transiently overexpressing human RXFP3 or human RXFP4 as receptor source. Nonspecific binding was obtained by competition with 1.0 μM of human relaxin-3. Briefly, HEK293T cells were transiently transfected with the expression construct of human RXFP3 or human RXFP4. Next day, the transfected cells were trypsinised, seeded into a 96-well plate, and continuously cultured for 24–36 h to confluence. To start binding assay, the medium was removed and the binding solution (serum-free DMEM medium plus 1% bovine serum albumin) containing 0.5 nM of the NanoLuc-conjugated R3/I5 tracer and varied concentrations of competitor was added (100 μl/well). After incubation at 21 °C for 2 h, the binding solution was removed and the cells were washed twice by ice-cold phosphate-buffered saline (200 μl/well for each wash). Thereafter, the cells were lysed by lysis solution (100 μl/well, from Promega, Madison, WI, USA) and the cell lysate was transferred to a white opaque 96-well plate (50 μl/well). After mixing with the freshly diluted substrate (50 μl/well), bioluminescence was immediately measured on a SpectraMax M5 plate reader (Molecular Devices, Sunnyvale, CA, USA) using the luminescence mode. The measured bioluminescence data were expressed as mean ± SE (n = 3) and fitted to sigmoidal curves using the SigmaPlot10.0 software.

human RXFP4 [2] = molecular target: T2, human RXFP4 (Homo sapiens, UniProt Q8TDU9); test: as above; details: for fold lower binding potency towards RXFP4 compared with wild-type INSL5: lower than wild-type INSL5
T2 construct: expressed in transfected cells; host or cells: HEK293T
Description: as §1, §2

human RXFP3 [3] = molecular target: T1, human RXFP3; test: Receptor activation assay, CRE-controlled NanoLuc reporter; type: cell-based
Description: (§3) Figure 4 Receptor activation activities of the mature INSL5 and R3/I5 mutants towards RXFP3 and RXFP4. HEK293T cells transiently cotransfected by human RXFP3 or human RXFP4 and a CRE-controlled NanoLuc reporter were used for the activation assays. The measured data were expressed as mean ± SE (n = 3) and fitted to sigmoidal or linear curves using the software SigmaPlot 10.0.
(§4) The receptor activation assays of the mature INSL5 and R3/I5 mutants were carried out using a cAMP-response element (CRE)-controlled NanoLuc reporter according to our previous procedure. Briefly, HEK293T cells were transiently cotransfected with the expression construct of human RXFP3 or human RXFP4 and the CRE-controlled NanoLuc reporter vector pNL1.2/CRE. Next day, the transfected cells were trypsinised, seeded into a 96-well plate, and continuously cultured for 24–36 h to ~90% confluence. To start activation assay, the medium was removed and the activation solution (serum-free DMEM medium plus 1% bovine serum albumin) containing 1.0 μM of forskolin and varied concentrations of peptide was added (100 μl/well). After being continuously cultured at 37 °C for 4 h, the activation solution was removed and the cells were lysed by lysis solution (100 μl/well, from Promega). The cell lysate was then transferred to a white opaque 96-well plate (50 μl/well), mixed with the freshly diluted substrate (50 μl/well), and bioluminescence was immediately measured on a SpectraMax M5 plate reader (Molecular Devices) using the luminescence mode. The measured bioluminescence data were expressed as mean ± SE (n = 3) and fitted to sigmoidal or linear curves using the SigmaPlot10.0 software.

human RXFP4 [4] = molecular target: T2, human RXFP4; test: as above; type: cell-based; details: for fold lower activation potency towards RXFP4 compared with INSL5: lower than wild-type INSL5
Description: as §3, §4

[5] = HEK293T cells transiently overexpressing human RXFP3, 0.5 nM NanoLuc-conjugated R3/I5 tracer, 21 °C, 2 h, mean ± SE, n = 3, SEM
[6] = HEK293T cells transiently overexpressing human RXFP4, 0.5 nM NanoLuc-conjugated R3/I5 tracer, 21 °C, 2 h, mean ± SE, n = 3, SEM
[7] = HEK293T cells cotransfected with human RXFP3 and CRE-controlled NanoLuc reporter, 1.0 μM forskolin, 37 °C, 4 h, mean ± SE, n = 3, N.D., not detectable, SEM
[8] = HEK293T cells cotransfected with human RXFP4 and CRE-controlled NanoLuc reporter, 1.0 μM forskolin, 37 °C, 4 h, mean ± SE, n = 3, SEM

T2 sequence (Q8TDU9 whole entry): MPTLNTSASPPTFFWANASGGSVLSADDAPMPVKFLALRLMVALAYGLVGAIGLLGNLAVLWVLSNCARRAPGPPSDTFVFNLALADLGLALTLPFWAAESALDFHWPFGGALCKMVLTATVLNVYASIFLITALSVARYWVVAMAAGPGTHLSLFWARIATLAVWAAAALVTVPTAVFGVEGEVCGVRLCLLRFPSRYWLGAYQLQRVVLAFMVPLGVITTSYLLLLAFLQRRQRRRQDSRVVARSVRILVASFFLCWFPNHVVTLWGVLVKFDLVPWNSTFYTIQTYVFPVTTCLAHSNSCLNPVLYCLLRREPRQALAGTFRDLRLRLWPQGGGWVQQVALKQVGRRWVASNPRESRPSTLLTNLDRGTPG

Row | Molecule | pIC50 RXFP3 (human RXFP3 [1]; [5]) | fold lower binding potency towards RXFP3 compared with wild-type INSL5 (human RXFP3 [1]) | pIC50 RXFP4 (human RXFP4 [2]; [6]) | fold lower binding potency towards RXFP4 compared with wild-type INSL5 (human RXFP4 [2]) | pEC50 RXFP3 (human RXFP3 [3]; [7]) | pEC50 RXFP4 (human RXFP4 [4]; [8]) | fold lower activation potency towards RXFP4 compared with INSL5 (human RXFP4 [4]) | fold higher binding potency towards RXFP3 than wild-type INSL5 (human RXFP3 [1]; higher than wild-type INSL5) | IC50 (human RXFP3 [1]; HEK293T cells transiently overexpressing human RXFP3, 0.5 nM NanoLuc-conjugated R3/I5 tracer, 21 °C, 2 h, mean ± SE, n = 3, SEM, read-out: pIC50 RXFP3 (converted)) [nM] | IC50 (human RXFP4 [2]; HEK293T cells transiently overexpressing human RXFP4, 0.5 nM NanoLuc-conjugated R3/I5 tracer, 21 °C, 2 h, mean ± SE, n = 3, SEM, read-out: pIC50 RXFP4 (converted)) [nM] | EC50 (human RXFP3 [3]; HEK293T cells cotransfected with human RXFP3 and CRE-controlled NanoLuc reporter, 1.0 μM forskolin, 37 °C, 4 h, mean ± SE, n = 3, N.D., not detectable, SEM, read-out: pEC50 RXFP3 (converted)) [nM] | EC50 (human RXFP4 [4]; HEK293T cells cotransfected with human RXFP4 and CRE-controlled NanoLuc reporter, 1.0 μM forskolin, 37 °C, 4 h, mean ± SE, n = 3, SEM, read-out: pEC50 RXFP4 (converted)) [nM] | pEC50 RXFP3 (human RXFP3 [3]; HEK293T cells cotransfected with human RXFP3 and CRE-controlled NanoLuc reporter, 1.0 μM forskolin, 37 °C, 4 h, mean ± SE, n = 3, N.D., not detectable) | fold lower activation potency towards RXFP3 than its parent mutants (human RXFP3 [3]; lower than parent mutants [L(B9)R]INSL5 and [Y(B17)F]INSL5) | activation potency towards RXFP3, result in words (human RXFP3 [3]; CRE-controlled NanoLuc reporter, HEK293T cells, human RXFP3) | fold lower activation potency towards RXFP3 than relaxin-3 (human RXFP3 [3]; lower than relaxin-3)
1 | [Y(B17)F]INSL5: recombinant mature two-chain INSL5 mutant (Insulin-like peptide INSL5 B … KESVRLCGLEYIRTVIFICASSRW; Insulin-like peptide INSL5 A … QDLQTLCCTDGCSMTDLSALC; ends and bridges not checked; cysteine pairing not given here; UniProt Q9Y5Q6 23-46; Q9Y5Q6 115-135, looked up, variant Y17F) | 6.77 ± 0.05 | ~ 3 fold | 7.23 ± 0.03 | ~ 3 fold | 6.83 ± 0.08 | 8.40 ± 0.09 | ~ 9 fold | – | – | – | – | – | – | – | – | –
2 | [L(B9)R]INSL5: recombinant mature two-chain INSL5 mutant (Insulin-like peptide INSL5 B … KESVRLCGREYIRTVIYICASSRW; Insulin-like peptide INSL5 A … QDLQTLCCTDGCSMTDLSALC; ends and bridges not checked; cysteine pairing not given here; UniProt Q9Y5Q6 23-46; Q9Y5Q6 115-135, looked up, variant L9R) | 7.87 ± 0.04 | – | 7.85 ± 0.03 | – | 7.21 ± 0.04 | 9.87 ± 0.04 | – | ~ 4 fold | – | – | – | – | – | – | – | –
3 | CC[C@H](C)[C@@H]1NC(=O)[C@H](Cc2ccccc2)NC(=O)[C@H](CCC(=O)O)NC(=O)[C@H](CCCNC(=N)N)NC(=O)CNC(=O)[C@@H](NC(=O)[C@H](CC(C)C)NC(=O)[C@H](CCCNC(=N)N)NC(=O)[C@@H](NC(=O)CNC(=O)[C@H](Cc2ccc(O)cc2)NC(=O)[C@@H]2CCCN2C(=O)[C@H](C)NC(=O)[C@H](C)NC(=O)[C@@H](N)CCCNC(=N)N)C(C)C)CSSC[C@@H]2NC(=O)[C@@H](NC(=O)[C@H](CO)NC(=O)[C@H](CO)NC(=O)[C@H](CO)NC(=O)[C@H](CC(C)C)NC(=O)CNC(=O)[C@H](C)NC(=O)[C@H](CC(C)C)NC(=O)[C@@H](NC(=O)[C@@H](N)CC(=O)O)C(C)C)CSSC[C@H](NC(=O)CNC(=O)[C@H](Cc3c[nH]c4ccccc34)NC(=O)[C@H](CCCCN)NC2=O)C(=O)N[C@@H](CO)C(=O)N[C@@H](CCCCN)C(=O)N[C@@H](CO)C(=O)N[C@@H](CCC(=O)O)C(=O)N[C@@H]([C@@H](C)CC)C(=O)N[C@@H](CO)C(=O)N[C@@H](CO)C(=O)N[C@@H](CC(C)C)C(=O)N[C@H](C(=O)O)CSSC[C@@H](C(=O)NCC(=O)NCC(=O)N[C@@H](CO)C(=O)N[C@@H](CCCNC(=N)N)C(=O)N[C@@H](Cc2c[nH]c3ccccc23)C(=O)O)NC(=O)[C@H]([C@@H](C)O)NC(=O)[C@H](Cc2ccccc2)NC(=O)[C@H]([C@@H](C)CC)NC(=O)[C@H](C(C)C)NC(=O)[C@H](C)NC(=O)[C@H](CCCNC(=N)N)NC1=O [relaxin-3, reference compound] | – | – | – | – | – | – | – | – | 2.04 | 12.3 | 0.0245 | 0.105 | – | – | – | –
4 | [L(B9)R,Y(B17)F]INSL5: recombinant mature two-chain INSL5 mutant (Insulin-like peptide INSL5 B … KESVRLCGREYIRTVIFICASSRW; Insulin-like peptide INSL5 A … QDLQTLCCTDGCSMTDLSALC; ends and bridges not checked; cysteine pairing not given here; UniProt Q9Y5Q6 23-46; Q9Y5Q6 115-135, looked up, variant L9R Y17F) | 8.17 ± 0.04 | – | 7.33 ± 0.03 | ~ 3 fold | – | 9.20 ± 0.03 | – | – | – | – | – | – | <6 | ~ 10 fold | – | –
5 | [I(B18)T]INSL5: recombinant mature two-chain INSL5 mutant (Insulin-like peptide INSL5 B … KESVRLCGLEYIRTVIYTCASSRW; Insulin-like peptide INSL5 A … QDLQTLCCTDGCSMTDLSALC; ends and bridges not checked; cysteine pairing not given here; UniProt Q9Y5Q6 23-46; Q9Y5Q6 115-135, looked up, variant I18T) | 7.07 ± 0.04 | – | 7.43 ± 0.05 | – | – | 9.31 ± 0.08 | – | – | – | – | – | – | – | – | no detectable activation potency | –
6 | [A(B20)G,S(B21)G]INSL5: recombinant mature two-chain INSL5 mutant (Insulin-like peptide INSL5 B … KESVRLCGLEYIRTVIYICGGSRW; Insulin-like peptide INSL5 A … QDLQTLCCTDGCSMTDLSALC; not fully specified; ends and bridges not checked; UniProt Q9Y5Q6 23-46; Q9Y5Q6 115-135, looked up, variant A20G S21G) | 6.01 ± 0.06 | ~ 18 fold | 6.39 ± 0.05 | ~ 23 fold | 6.90 ± 0.04 | 8.59 ± 0.05 | ~ 6 fold | – | – | – | – | – | – | – | – | ~ 5000 fold
